PMC12753717

Columns and labels:
[1] = target: soluble envelope protein ectodomain of yellow fever virus strain 17D with C-terminal 3C site and TwinStrep tag (yellow fever virus strain 17D); assay: SEC-MALS
[2] = target: soluble envelope protein ectodomain of yellow fever virus strain Asibi with C-terminal 3C site and TwinStrep tag (yellow fever virus strain Asibi); assay: SEC-MALS

Substance | stoichiometry N [1] | stoichiometry N [2]
precursor peptide pr of yellow fever virus strain 17D | 1 | 
precursor peptide pr of yellow fever virus strain Asibi, canonical furin cleavage product (pr1, 9.95 kDa) |  | 1
